Test results: patent US20230049152A1 (Genentech, published 2023)
Where a chain is given by its changes, count along the chain named. Blank lines part the entries; values can stand above or below the binder they belong to.

What was measured:
S8A = molecular target: T1, S8A; experiment: flow cytometry, HEK293 transfected with hCCR8 S8A with C-terminal FLAG; sheet prints [huCCR8]=0.02 ug/ml
T1 construct: single alanine mutant of hCCR8; also called hCCR8 S8A
T1 receptor chain: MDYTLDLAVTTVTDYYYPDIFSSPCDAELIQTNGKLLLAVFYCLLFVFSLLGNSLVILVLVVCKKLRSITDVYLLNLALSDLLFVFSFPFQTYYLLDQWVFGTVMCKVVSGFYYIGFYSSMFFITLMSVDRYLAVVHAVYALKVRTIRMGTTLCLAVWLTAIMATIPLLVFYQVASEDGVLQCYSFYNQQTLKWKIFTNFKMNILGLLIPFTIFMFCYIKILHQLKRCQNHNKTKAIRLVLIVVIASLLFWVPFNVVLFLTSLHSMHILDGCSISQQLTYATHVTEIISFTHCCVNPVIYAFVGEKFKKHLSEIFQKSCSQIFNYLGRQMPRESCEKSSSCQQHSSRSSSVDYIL

T10A = molecular target: T2, T10A; experiment: flow cytometry, HEK293 transfected with hCCR8 T10A with C-terminal FLAG; sheet prints [huCCR8]=0.02 ug/ml
T2 construct: single alanine mutant of hCCR8; also called hCCR8 T10A
T2 receptor chain: T1 receptor chain with A8S, T10A

D14A = molecular target: T3, D14A; experiment: flow cytometry, HEK293 transfected with hCCR8 D14A with C-terminal FLAG; sheet prints [huCCR8]=0.02 ug/ml
T3 construct: single alanine mutant of hCCR8; also called hCCR8 D14A
T3 receptor chain: T1 receptor chain with A8S, D14A

hCCR8 Y3A = molecular target: T4, hCCR8 Y3A (human, UniProt P51685 1-355); experiment: flow cytometry, HEK293 transfected with hCCR8 Y3A with C-terminal FLAG
T4 construct: alanine point mutant on transfected HEK 293 cells
Method: FIGS. 16A-16B depict the epitope maps for hu.Ab5.H13L1 (FIG. 16A) and hu.Ab4.H12L3 (FIG. 16B) mAbs.
To epitope map fucosylated hu.Ab5.H13L1, the binding to alanine point mutations in human CCR8 was analyzed by flow cytometry.

L7A = molecular target: T5, L7A; experiment: flow cytometry, HEK293 transfected with hCCR8 L7A with C-terminal FLAG; sheet prints [huCCR8]=0.02 ug/ml
T5 construct: single alanine mutant of hCCR8; also called hCCR8 L7A
T5 receptor chain: T1 receptor chain with L7A, A8S

S22A = molecular target: T6, S22A; experiment: flow cytometry, HEK293 transfected with hCCR8 S22A with C-terminal FLAG; sheet prints [huCCR8]=0.02 ug/ml
T6 construct: single alanine mutant of hCCR8; also called hCCR8 S22A
T6 receptor chain: T1 receptor chain with A8S, S22A

[1] = molecular target: T7, human CCR8.CCR5 chimera ECL1 (human, UniProt P51681 86-99, limits assumed); experiment: flow cytometry, 293 cells transfected with the CCR8.CCR5 chimera ECL1 with C-terminal FLAG
T7 construct: domain: ECL1; on transfected 293 cells; also called ECL1 chimera
Method: (§1) To epitope map fucosylated hu.Ab4.H12L3, the binding to chimeric forms of human CCR8 was analyzed by flow cytometry.

[2] = molecular target: T8, human CCR8.CCR5 chimera ECL2 (human, UniProt P51681 167-189); experiment: flow cytometry, 293 cells transfected with the CCR8.CCR5 chimera ECL2 with C-terminal FLAG
T8 construct: domain: ECL2; Flanking CCR8 ranges derived from the stated replaced range 172-193; on transfected 293 cells; also called ECL2 chimera
Method: as §1

- binding result (S8A): binds
- binding result (T10A): binds
- binding result (D14A): binds
- binding result (hCCR8 Y3A): no binding (tested: 0.02 ug/ml)
- binding result (L7A): binds
- binding result (S22A): binds
B1: hu.Ab5.H13L1 (antibody, human IgG1, kappa)
heavy: not shown
light: DIQVTQSPSSLSASVGDRVTITCQASENIANALAWYQQKPGKPPKFLIYGASNLASGVPSRFSGSGSGTDFTFTISSLQPEDIATYYCQQAYYGNSFVEGTFGGGTKVEIKRTVAAPSVFIFPPSDEQLKSGTASVVCLLNNFYPREAKVQWKVDNALQSGNSQESVTEQDSKDSTYSLSSTLTLSKADYEKHKVYACEVTHQGLSSPVTKSFNRGEC
notes: fucosylated human IgG1; also called Ab5 variant

- binding result [1]: no binding
- binding result [2]: no binding
B2: hu.Ab4.H12L3 (antibody, human IgG1, kappa)
heavy: not shown
light: DYQMTQSPSSLSASVGDRVTITCQASQSISSYLSWYQQKPGKAPKLLIYKASTLASGVPSRFSGSGSGTDFTLTISSLQPEDFATYYCQQGYTSSNIDNIFGGGTKVEIKRTVAAPSVFIFPPSDEQLKSGTASVVCLLNNFYPREAKVQWKVDNALQSGNSQESVTEQDSKDSTYSLSSTLTLSKADYEKHKVYACEVTHQGLSSPVTKSFNRGEC
notes: fucosylated human IgG1; also called huCCR8-Ab4.H12L3.hIgG1; Ab4 variant
